Two molecules from PMC8892091 (The Journal of Biological Chemistry, 2022) can be followed below.

Series [1] deals with the molecule itself. As to the kind of experiment: crystal structure.
Series [2] deals with His-tag labeled ALKBH6 (human, UniProt Q3KRA9 1-238, fluorescent label on the His-tag (His-tag labeling kit RED-tris-NTA)). In words: MST.

B1: ALKBH6 (crystallised, ALKBH6∙Mn2+∙α-KG; holo-ALKBH6) (enzyme, human, UniProt Q3KRA9 1-238, looked up)
chain: MEEQDARVPALEPFRVEQAPPVIYYVPDFISKEEEEYLLRQVFNAPKPKWTQLSGRKLQNWGGLPHPRGMVPERLPPWLQRYVDKVSNLSLFGGLPANHVLVNQYLPGEGIMPHEDGPLYYPTVSTISLGSHTVLDFYEPRRPEDDDPTEQPRPPPRPTTSLLLEPRSLLVLRGPAYTRLLHGIAAARVDALDAASSPPNAAACPSARPGACLVRGTRVSLTIRRVPRVLRAGLLLGK
B1: in series [1], the binding result is “binds”.

B2: ZMYND11 peptide (V71 to K151) (domain or fragment, human, UniProt Q15326 71-151, looked up)
chain: VGCKGSKAGIEQEGYWLPGDEIDWETENHDWYCFECHLPGEVLICDLCFRVYHSKCLSDEFRLRDSSSPWQCPVCRSIKKK
Consider B2, for which the “fold higher binding affinity than ALKBH6 itself” value in series [2] was found to be 3.5 fold.
